Three molecules from PMC9243176, “Multifaceted regulation of the sumoylation of the Sgs1 DNA helicase” (The Journal of Biological Chemistry, 2022) can be followed below.

In one data set the target is T1, Esc2-5E (Saccharomyces cerevisiae, UniProt Q06340 1-456, K179E;K182E;K183E;K197E;R198E).
T1 sequence: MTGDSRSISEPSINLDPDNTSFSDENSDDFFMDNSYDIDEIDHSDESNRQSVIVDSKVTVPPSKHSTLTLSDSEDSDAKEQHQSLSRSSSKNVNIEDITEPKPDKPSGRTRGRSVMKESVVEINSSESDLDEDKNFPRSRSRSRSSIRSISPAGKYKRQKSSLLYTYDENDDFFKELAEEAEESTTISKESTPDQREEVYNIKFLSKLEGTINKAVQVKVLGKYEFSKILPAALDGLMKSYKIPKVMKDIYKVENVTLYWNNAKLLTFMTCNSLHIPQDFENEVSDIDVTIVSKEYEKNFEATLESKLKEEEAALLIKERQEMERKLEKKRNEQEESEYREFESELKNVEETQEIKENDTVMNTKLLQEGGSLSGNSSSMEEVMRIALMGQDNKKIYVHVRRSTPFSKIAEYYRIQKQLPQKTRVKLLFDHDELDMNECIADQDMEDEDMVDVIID
Briefly: EMSA; 5-80 nM protein, 5 nM DNA; 35 mM Tris-HCl pH 7.5, 1 mM DTT, 100 ug/ml BSA, 5 mM MgCl2, 130 mM KCl, 30 C, 10 min; native PAGE in TAE (6.5% STR and E3, 7% Esc2). The conditions noted are these: protein: recombinant.

In the next data set the target is T2, Esc2-MRΔ (Saccharomyces cerevisiae, UniProt Q06340 1-456, del154-198).
T2 sequence: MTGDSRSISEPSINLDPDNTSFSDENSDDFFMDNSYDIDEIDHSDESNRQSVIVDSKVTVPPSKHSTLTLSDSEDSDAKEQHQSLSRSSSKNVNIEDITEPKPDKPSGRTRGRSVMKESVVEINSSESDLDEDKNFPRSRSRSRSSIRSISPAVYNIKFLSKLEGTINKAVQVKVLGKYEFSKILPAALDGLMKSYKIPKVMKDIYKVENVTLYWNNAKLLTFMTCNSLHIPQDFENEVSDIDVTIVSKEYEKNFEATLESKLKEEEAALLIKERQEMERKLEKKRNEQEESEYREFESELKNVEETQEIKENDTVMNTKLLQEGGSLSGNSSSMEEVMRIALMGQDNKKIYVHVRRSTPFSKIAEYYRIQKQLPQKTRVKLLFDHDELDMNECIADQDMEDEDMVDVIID
The description is as above. The conditions noted are these: protein: recombinant.

In the next data set the target is T3, Mms21;Smc5 (Saccharomyces cerevisiae;Saccharomyces …, UniProt P38632;Q08204 1-267;1-1093, |).
T3 sequence 1: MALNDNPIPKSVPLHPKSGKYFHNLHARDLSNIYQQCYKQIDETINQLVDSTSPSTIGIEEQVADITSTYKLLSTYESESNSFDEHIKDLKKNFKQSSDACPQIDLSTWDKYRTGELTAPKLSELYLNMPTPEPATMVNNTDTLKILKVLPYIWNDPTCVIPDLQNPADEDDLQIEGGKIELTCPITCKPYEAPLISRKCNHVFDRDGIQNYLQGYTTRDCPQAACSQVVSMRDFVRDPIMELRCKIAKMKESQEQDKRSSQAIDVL
T3 sequence 2: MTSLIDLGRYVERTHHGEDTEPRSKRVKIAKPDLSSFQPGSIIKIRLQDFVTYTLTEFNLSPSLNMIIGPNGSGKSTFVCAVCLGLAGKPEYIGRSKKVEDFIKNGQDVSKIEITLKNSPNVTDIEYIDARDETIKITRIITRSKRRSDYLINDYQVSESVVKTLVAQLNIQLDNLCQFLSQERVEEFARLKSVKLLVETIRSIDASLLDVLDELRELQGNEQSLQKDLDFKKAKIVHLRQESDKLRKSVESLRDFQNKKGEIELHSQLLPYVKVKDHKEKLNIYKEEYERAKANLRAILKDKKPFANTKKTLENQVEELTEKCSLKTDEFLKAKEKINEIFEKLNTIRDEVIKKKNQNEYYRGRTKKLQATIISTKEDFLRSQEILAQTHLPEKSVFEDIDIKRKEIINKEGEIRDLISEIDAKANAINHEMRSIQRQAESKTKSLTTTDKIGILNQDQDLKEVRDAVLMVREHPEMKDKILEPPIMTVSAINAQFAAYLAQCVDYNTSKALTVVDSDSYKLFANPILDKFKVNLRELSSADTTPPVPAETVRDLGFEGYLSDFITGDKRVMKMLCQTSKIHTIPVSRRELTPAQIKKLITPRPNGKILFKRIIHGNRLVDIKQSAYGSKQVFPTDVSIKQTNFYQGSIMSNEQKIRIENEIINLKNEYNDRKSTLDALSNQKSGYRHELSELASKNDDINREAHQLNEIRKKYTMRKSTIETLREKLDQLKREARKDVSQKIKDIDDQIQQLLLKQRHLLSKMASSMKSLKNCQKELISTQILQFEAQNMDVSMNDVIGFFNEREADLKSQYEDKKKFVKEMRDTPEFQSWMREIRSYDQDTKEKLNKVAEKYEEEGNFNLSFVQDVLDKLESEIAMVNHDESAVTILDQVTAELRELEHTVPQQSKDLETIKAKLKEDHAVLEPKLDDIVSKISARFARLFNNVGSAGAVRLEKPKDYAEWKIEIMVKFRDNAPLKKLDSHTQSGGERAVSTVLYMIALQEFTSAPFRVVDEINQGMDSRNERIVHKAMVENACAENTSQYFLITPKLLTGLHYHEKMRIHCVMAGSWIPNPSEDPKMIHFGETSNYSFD
Put plainly: EMSA; 5-40 nM E3, 5 nM DNA; less pronounced than STR; 35 mM Tris-HCl pH 7.5, 1 mM DTT, 100 ug/ml BSA, 5 mM MgCl2, 130 mM KCl, 30 C, 10 min; native PAGE in TAE (6.5% STR and E3, 7% Esc2). The conditions noted are these: protein: recombinant;recombinant; tags: ;; copies: 1;1; four-way Holliday junction of 4 strands.

Data set [1] deals with T4, Sgs1;Top3;Rmi1 (Saccharomyces cerevisiae;Saccharomyces …, UniProt P35187;P13099;Q02685 1-1447;1-656;1-241, ||). Briefly: EMSA; 5-40 nM STR, 5 nM DNA; 35 mM Tris-HCl pH 7.5, 1 mM DTT, 100 ug/ml BSA, 5 mM MgCl2, 130 mM KCl, 30 C, 10 min; native PAGE in TAE (6.5% STR and E3, 7% Esc2). The conditions noted are these: protein: recombinant;recombinant;recombinant; tags: Flag;V5;GST; copies: 1;1;1; four-way Holliday junction of 4 strands.
T4 sequence (P35187 whole entry, chain 1 of 3): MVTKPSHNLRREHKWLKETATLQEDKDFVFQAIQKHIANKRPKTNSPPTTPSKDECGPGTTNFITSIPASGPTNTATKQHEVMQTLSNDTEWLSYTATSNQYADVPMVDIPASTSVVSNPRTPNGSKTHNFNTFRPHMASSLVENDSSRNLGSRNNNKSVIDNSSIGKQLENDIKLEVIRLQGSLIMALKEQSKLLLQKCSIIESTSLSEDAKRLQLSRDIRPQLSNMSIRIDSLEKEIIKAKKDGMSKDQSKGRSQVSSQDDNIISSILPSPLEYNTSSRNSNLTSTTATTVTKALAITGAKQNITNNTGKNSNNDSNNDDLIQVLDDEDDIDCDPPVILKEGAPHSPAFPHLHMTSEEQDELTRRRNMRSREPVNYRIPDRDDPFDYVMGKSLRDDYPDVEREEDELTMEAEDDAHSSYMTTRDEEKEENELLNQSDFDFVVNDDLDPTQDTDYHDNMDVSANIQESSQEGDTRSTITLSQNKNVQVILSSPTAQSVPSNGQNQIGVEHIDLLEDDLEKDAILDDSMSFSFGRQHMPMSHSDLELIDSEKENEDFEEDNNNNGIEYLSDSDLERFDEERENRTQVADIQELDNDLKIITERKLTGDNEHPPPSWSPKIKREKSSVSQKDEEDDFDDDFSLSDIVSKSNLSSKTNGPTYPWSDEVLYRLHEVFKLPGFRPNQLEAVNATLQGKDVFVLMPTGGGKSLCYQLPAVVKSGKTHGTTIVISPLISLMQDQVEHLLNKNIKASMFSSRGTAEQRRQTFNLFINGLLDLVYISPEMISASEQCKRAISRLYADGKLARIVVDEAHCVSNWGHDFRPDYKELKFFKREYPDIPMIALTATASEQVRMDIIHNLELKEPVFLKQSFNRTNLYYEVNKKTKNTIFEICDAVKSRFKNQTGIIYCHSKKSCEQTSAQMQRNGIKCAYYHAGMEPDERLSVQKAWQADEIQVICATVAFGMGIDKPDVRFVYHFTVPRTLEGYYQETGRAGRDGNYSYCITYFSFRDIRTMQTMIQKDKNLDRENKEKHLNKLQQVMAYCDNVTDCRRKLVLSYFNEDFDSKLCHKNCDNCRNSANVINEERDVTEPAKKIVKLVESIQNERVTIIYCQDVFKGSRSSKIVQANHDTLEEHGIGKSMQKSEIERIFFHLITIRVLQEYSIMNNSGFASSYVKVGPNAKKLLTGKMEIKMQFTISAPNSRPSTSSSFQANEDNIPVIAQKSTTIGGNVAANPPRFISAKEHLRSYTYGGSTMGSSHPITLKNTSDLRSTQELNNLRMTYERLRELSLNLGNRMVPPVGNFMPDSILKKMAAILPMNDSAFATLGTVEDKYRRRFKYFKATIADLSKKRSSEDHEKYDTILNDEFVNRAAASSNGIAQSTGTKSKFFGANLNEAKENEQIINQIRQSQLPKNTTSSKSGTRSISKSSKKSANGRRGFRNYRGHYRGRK
T4 sequence (P13099 whole entry, chain 2 of 3): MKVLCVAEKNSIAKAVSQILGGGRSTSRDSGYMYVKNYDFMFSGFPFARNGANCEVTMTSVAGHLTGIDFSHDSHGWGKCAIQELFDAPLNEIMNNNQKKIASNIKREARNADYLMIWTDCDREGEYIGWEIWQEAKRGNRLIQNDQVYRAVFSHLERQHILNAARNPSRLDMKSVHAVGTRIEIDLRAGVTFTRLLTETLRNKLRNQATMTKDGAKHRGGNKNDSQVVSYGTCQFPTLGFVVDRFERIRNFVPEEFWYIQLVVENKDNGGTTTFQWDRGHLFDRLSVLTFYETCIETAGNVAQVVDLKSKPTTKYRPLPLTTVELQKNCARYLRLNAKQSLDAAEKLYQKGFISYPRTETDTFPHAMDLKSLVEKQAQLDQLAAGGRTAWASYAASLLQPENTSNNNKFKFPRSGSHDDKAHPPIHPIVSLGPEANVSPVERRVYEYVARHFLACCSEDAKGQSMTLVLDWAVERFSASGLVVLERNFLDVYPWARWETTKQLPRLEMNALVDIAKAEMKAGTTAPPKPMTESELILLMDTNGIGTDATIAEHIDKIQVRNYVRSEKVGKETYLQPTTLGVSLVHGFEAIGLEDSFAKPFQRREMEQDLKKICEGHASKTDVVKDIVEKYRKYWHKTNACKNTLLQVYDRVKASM
T4 sequence (Q02685 whole entry, chain 3 of 3): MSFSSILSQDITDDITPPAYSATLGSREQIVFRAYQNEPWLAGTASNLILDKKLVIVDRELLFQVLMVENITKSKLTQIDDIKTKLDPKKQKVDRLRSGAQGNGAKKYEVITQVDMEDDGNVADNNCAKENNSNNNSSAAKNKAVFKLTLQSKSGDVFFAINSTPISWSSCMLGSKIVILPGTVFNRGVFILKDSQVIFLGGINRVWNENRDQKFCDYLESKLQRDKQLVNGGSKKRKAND

The next data set deals with T5, Esc2 (Saccharomyces cerevisiae, UniProt Q06340 1-456).
T5 sequence: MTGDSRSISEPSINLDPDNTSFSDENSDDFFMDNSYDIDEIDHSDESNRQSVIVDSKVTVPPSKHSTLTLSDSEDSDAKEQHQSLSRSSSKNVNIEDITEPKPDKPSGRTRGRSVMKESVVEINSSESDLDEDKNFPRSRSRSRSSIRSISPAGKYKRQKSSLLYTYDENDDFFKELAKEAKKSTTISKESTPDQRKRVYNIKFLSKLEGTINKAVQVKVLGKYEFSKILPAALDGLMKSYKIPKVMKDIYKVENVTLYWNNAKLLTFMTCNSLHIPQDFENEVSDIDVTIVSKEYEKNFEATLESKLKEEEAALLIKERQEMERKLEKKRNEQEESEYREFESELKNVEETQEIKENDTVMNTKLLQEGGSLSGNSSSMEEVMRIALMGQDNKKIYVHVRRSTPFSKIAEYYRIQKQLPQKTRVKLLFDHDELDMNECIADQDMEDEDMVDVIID
Put plainly: EMSA; 5-80 nM Esc2, 5 nM DNA; strong preference over dsDNA; 35 mM Tris-HCl pH 7.5, 1 mM DTT, 100 ug/ml BSA, 5 mM MgCl2, 130 mM KCl, 30 C, 10 min; native PAGE in TAE (6.5% STR and E3, 7% Esc2). As to conditions: protein: recombinant; four-way Holliday junction of 4 strands.

The target of data set [2] is T4, Sgs1;Top3;Rmi1. Put plainly: EMSA; 5-40 nM STR, 5 nM DNA; similar to HJ; 35 mM Tris-HCl pH 7.5, 1 mM DTT, 100 ug/ml BSA, 5 mM MgCl2, 130 mM KCl, 30 C, 10 min; native PAGE in TAE (6.5% STR and E3, 7% Esc2). As to conditions: protein: recombinant;recombinant;recombinant; tags: Flag;V5;GST; copies: 1;1;1; blunt.
Another data set concerns the target T6, GST-Esc2-5E (budding yeast, UniProt Q06340 1-456, K179E | K182E | K183E | K197E | R198E).
T6 construct: Esc2 of budding yeast with five basic residues of the midregion (MR) replaced by glutamic acid; The methods describe a pET24a construct; source: expressed and purified by published procedures
T6 sequence (looked up): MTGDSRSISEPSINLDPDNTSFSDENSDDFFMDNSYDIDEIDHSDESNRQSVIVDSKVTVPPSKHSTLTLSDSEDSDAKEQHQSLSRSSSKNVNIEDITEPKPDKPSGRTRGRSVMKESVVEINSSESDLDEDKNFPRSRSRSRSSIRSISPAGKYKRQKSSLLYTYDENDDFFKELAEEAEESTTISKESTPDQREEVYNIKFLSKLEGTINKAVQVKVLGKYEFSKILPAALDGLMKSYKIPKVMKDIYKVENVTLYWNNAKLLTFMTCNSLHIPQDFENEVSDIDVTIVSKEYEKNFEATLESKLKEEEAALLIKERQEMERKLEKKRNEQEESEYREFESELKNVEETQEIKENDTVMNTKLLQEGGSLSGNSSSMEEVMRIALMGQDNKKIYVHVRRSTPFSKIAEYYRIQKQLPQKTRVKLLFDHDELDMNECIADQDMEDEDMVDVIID
Put plainly: pull-down; GST or GST-tagged Esc2 or variants (2.2 μM) incubated with 3.6 μM Ubc9 in T buffer (25 mM Tris-Cl pH 7.4, 10% glycerol, 0.5 mM EDTA, 0.01% Igepal, 1 mM DTT) with 80 mM KCl, 30 min at 4 °C; captured on Glutathione Sepharose 4B; SDS-PAGE, Coomassie blue stain. As to conditions: both partners purified.

In a further data set the target is T7, GST-Esc2-MRΔ (budding yeast, UniProt Q06340 1-456, truncating residues 154 to 198).
T7 construct: Esc2 of budding yeast lacking the midregion (MR), residues 154 to 198; The methods describe a pET24a construct; source: expressed and purified by published procedures
T7 sequence (looked up): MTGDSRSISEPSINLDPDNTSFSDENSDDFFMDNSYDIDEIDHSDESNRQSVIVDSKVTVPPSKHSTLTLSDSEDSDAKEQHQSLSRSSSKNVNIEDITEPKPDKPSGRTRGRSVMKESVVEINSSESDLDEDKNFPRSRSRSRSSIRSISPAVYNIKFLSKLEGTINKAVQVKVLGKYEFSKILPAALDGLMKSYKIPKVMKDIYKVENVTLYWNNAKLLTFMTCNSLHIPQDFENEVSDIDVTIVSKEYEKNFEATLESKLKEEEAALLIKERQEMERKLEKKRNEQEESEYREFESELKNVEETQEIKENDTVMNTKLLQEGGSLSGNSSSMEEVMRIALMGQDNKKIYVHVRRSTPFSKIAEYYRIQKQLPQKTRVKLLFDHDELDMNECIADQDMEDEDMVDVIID
The description is as above. As to conditions: both partners purified.

Where [3] appears, read: four-way Holliday junction of 4 strands.

B1: HJ-DNA (H3/H5/H7/H8) (structured_DNA)
DNA 1: TTGATAAGAGGTCATTTGAATTCATGGCTTAGAGCTTAATTGCTGAATCTGGTGCTGGGATCCAACATGTTTTAAATATG
DNA 2: CATATTTAAAACATGTTGGATCCCAGCACCAGATTCAGCATACGTTACCGATCGTACGTTCGATGCTGGCTACTGCTAGC
DNA 3: GCTAGCAGTAGCCAGCATCGAACGTACGATCGGTAACGTAGTCGATTATCGAGATCAAGCTAGCATAGCCATAGCGCGAC
DNA 4: GTCGCGCTATGGCTATGCTAGCTTGATCTCGATAATCGACATTAAGCTCTAAGCCATGAATTCAAATGACCTCTTATCAA
As for B1, the binding result was “no binding” in the data set with Esc2-5E (setting [3]); “no binding” with Esc2-MRΔ (setting [3]); “binds” in the data set with Mms21;Smc5; “binds” in the data set with Sgs1;Top3;Rmi1 [1]; “binds” with Esc2.

B2: dsDNA (H3/H4) (dsDNA)
DNA 1: TTGATAAGAGGTCATTTGAATTCATGGCTTAGAGCTTAATTGCTGAATCTGGTGCTGGGATCCAACATGTTTTAAATATG
DNA 2: CATATTTAAAACATGTTGGATCCCAGCACCAGATTCAGCAATTAAGCTCTAAGCCATGAATTCAAATGACCTCTTATCAA
For the molecule B2, the binding result in the data set with Esc2-5E (blunt) is recorded as “no binding”; with Esc2-MRΔ (blunt), “no binding”; with Sgs1;Top3;Rmi1 [2], “binds”.

B3: Ubc9 (SUMO E2) (enzyme, budding yeast, UniProt P50623 1-157, looked up)
chain: MSSLCLQRLQEERKKWRKDHPFGFYAKPVKKADGSMDLQKWEAGIPGKEGTNWAGGVYPITVEYPNEYPSKPPKVKFPAGFYHPNVYPSGTICLSILNEDQDWRPAITLKQIVLGVQDLLDSPNPNSPAQEPAWRSFSRNKAEYDKKVLLQAKQYSK
notes: Ubc9, the SUMO E2 enzyme of budding yeast; source: E. coli, purified (previously published procedures)
On to B3, for which the binding result with GST-Esc2-5E and in the data set with GST-Esc2-MRΔ was “binds” in each case.
